Values joined by “and” are separate entries in the source; they are usually repeats but may differ in a detail not shown here. Equal entries are not always repeated.
What was measured:
[1] = target: T1, human IL-2Rβ (Homo sapiens, UniProt P14784); experiment: Affinity to the IL-2 receptor by surface plasmon resonance; assay type: binding; conditions: SPR
T1 sequence (P14784 27-551): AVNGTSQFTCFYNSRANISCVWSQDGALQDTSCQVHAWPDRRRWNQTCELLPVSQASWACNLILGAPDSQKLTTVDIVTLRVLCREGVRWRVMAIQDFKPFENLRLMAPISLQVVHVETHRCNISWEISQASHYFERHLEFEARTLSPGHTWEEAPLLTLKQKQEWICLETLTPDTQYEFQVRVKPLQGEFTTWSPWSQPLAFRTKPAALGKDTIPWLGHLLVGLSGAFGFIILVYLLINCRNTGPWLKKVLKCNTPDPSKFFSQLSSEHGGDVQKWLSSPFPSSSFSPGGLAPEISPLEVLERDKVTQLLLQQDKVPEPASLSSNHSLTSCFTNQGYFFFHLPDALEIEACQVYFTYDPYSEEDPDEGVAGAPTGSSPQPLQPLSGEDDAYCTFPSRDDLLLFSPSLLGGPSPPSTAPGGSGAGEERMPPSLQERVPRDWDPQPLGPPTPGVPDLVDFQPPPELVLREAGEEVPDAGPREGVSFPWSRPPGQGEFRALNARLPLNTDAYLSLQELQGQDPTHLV
Description: (§1) Impaired IL-2 production and regulatory T cell dysfunctions have been implicated as an immunological mechanism in multiple autoimmune diseases. While low-dose IL-2 can be used to stimulate Tregs for clinical benefit, poor pharmacokinetics necessitates daily delivery, adverse events are dose-limiting, and Treg increases are modest and short-lived. […] The affinity to the IL-2 receptor is assessed by surface plasmon resonance. Activity in human PBMC can be measured by pSTAT5 induction in multiple lymphocyte populations using flow cytometry and time-of-flight mass cytometry (CyToF). In vivo activity after subcutaneous administration in C57BL/6 mice or cynomolgus monkey is measured by changes in lymphocyte numbers and activation by flow cytometry. Ex vivo Treg function is determined by the inhibition of Tcon proliferation by isolated splenic Treg. Efficacy is assessed in a model of systemic lupus erythematosus (SLE) using MRL/MpJ-Faslpr mice. […] In mice, a single administration leads to sustained Treg mobilization for 7-10 days in blood and spleen without Tcon activation, an effect concomitant with induction of Treg activation markers and increased ex vivo suppressive capacity. […] Finally, an RUR20kD-IL-2 composition is efficacious in mouse models of SLE.

[2] = Single dose pharmacokinetics in monkeys (IV and SC); assay type: in vivo, Cynomolgus Monkeys
[3] = tested on: cGVHD model; experiment: cGVHD model, repeat administration; assay type: in vivo
[4] = tested on: CD56+ NK cells; experiment: Phase I single ascending dose study in healthy volunteers: NK cells; assay type: in vivo, human
Description: A double-blind, randomized, placebo-controlled study is conducted to evaluate the safety, tolerability, pharmacokinetics, and pharmacodynamics of single ascending low sub-cutaneous doses of an RUR20kD-IL-2 composition (RUR20kD-IL-2) in healthy volunteers. […] Twelve subjects are randomized to each dose cohort, nine of whom received a single subcutaneous dose of RUR20kD-IL-2 while three received placebo. […] The drug product is supplied in single-use glass vials and stored at 2-8° C. […] Placebo is a commercially available 0.9% sodium chloride solution. A starting dose of 0.3 μg/kg is chosen using the minimally anticipated biological effect level (MABEL) approach and is supported by the no observed adverse effect level (NOAEL) in the most sensitive species from nonclinical toxicology studies.
The primary objective of the study is to evaluate the safety and tolerability of RUR20kD-IL-2 administered as a single subcutaneous dose. […] In a first phase of the study, immune markers are tested pre-dose up to 20 hours post-dose. Specifically, Tregs, CD4^+-T cells, CD8^+-T cells, natural killer (NK) cells, cytokines, soluble CD25, and RNA are tested in RUR20kD-IL-2- and placebo-receiving cohorts. In subsequent phases, the same immune markers are also tested at 4-, 5-, 6-, 7-, 8-, 10-, 12-, 15-, 18-, 20-, 25-, 30-, 40, and 50-days post-dose.

[5] = tested on: Tregs in human PBMC; experiment: pSTAT5 induction in lymphocyte populations of human PBMC (flow cytometry, CyToF); assay type: cell-based; conditions: in vitro
Description: as §1

[6] = Single dose pharmacokinetics in mice; assay type: in vivo, C57BL/6 Mice
[7] = Single dose toxicokinetics in rats (SC, LS-2016-004); assay type: in vivo, Rat; conditions: mean of three rats per time point
[8] = cynomolgus monkeys, single IV 0.025 mg/kg, mean of male and female
[9] = cynomolgus monkeys, single SC 0.025 mg/kg, mean of male and female
[10] = C57BL/6 mice, single SC 0.03 mg/kg, plasma
[11] = C57BL/6 mice, single SC 0.1 mg/kg, plasma
[12] = C57BL/6 mice, single SC 0.3 mg/kg, plasma

(1,3-bis(methoxypoly(ethylene glycol)10kDcarbamoyl)-2-propanoxy)-4-butanamide)interleukin-2) [RUR20kD-IL-2]
affinity for human IL-2Rβ relative to IL-2Ra and IL-2Rαβ complexes [1]: greatly attenuated affinity | AUCinf [2, 8]: 100000 ng·h/mL | AUClast [2, 8]: 71200 ng·h/mL | Half-life [2, 8]: 310 h | MRTinf [2, 8]: 403 h | Vss [2, 8]: 0.1 L/kg | CL ([2]; cynomolgus monkeys, single IV 0.025 mg/kg, mean of male and female, 0.025 mg/kg): 5.88 mL/day/kg and 6 mL/day/kg | AUCinf [2, 9]: 86000 ng·h/mL | AUClast [2, 9]: 65400 ng·h/mL | Cmax [2, 9]: 250 ng/mL | Half-life [2, 9]: 250 h | MRTinf [2, 9]: 360 h | Vss relative to species-specific plasma volume ([2]; monkeys): 2-4 fold | half-lives ([2]; monkeys, intravenous or subcutaneous dosing, range): 10.4 to 12.9 days | Tregs and germinal center B cells in spleen [3]: increases Tregs and decreases germinal center B cells in spleen | lung dysfunction [3]: reverses lung dysfunction | increase in NK cells ([4]; highest dose tested (28.0 μg/kg)): 2 fold and 3.5 fold | percentage of CD56+ NK cells expressing Ki67 ([4]; single SC 3.0 μg/kg): ~10% | percentage of CD56+ NK cells expressing Ki67 ([4]; single SC 6.0 μg/kg): 20-30% | percentage of CD56+ NK cells expressing Ki67 ([4]; single SC 9.0 μg/kg): 30-40% | percentage of CD56+ NK cells expressing Ki67 ([4]; single SC 13.5 μg/kg): 30-40% | percentage and absolute numbers of NK cells ([4]; single SC 13.5 and 20.0 μg/kg): small increase in the percentage and absolute numbers of NK cells | STAT5 phosphorylation in Tregs relative to other lymphocyte subsets [5]: increased STAT5 phosphorylation relative to other lymphocyte subsets | AUCinf [6, 10]: 22900 ng·h/mL | AUClast [6, 10]: 21500 ng·h/mL | Cmax [6, 10]: 333 ng/mL | Half-life [6, 10]: 53.8 h | MRTinf [6, 10]: 83 h | tmax [6, 10]: 7.92 h | AUCinf [6, 11]: 102000 ng·h/mL | AUClast [6, 11]: 97400 ng·h/mL | Cmax [6, 11]: 1140 ng/mL | Half-life [6, 11]: 53.8 h | MRTinf [6, 11]: 81.4 h | tmax [6, 11]: 7.92 h | AUCinf [6, 12]: 245000 ng·h/mL | AUClast [6, 12]: 238000 ng·h/mL | Cmax [6, 12]: 3330 ng/mL | Half-life [6, 12]: 44.4 h | MRTinf [6, 12]: 71.5 h | tmax [6, 12]: 24 h | tmax ([6]; mice, SC, range over doses): 7.92 to 24 h | half-lives ([6]; mice, range over doses): 1.85 to 2.24 days | AUCinf ([7]; single SC 0.01 mg/kg): 5230 ng·h/mL | AUClast ([7]; single SC 0.01 mg/kg): 5210 ng·h/mL | Cmax ([7]; single SC 0.01 mg/kg): 60 ng/mL | Half-life ([7]; single SC 0.01 mg/kg): 33.8 h | MRTinf ([7]; single SC 0.01 mg/kg): 63.1 h | tmax ([7]; single SC 0.01 mg/kg): 24 h | AUCinf ([7]; single SC 0.1 mg/kg): 73000 ng·h/mL | AUClast ([7]; single SC 0.1 mg/kg): 71100 ng·h/mL | Cmax ([7]; single SC 0.1 mg/kg): 640 ng/mL | Half-life ([7]; single SC 0.1 mg/kg): 58.6 h | MRTinf ([7]; single SC 0.1 mg/kg): 97.9 h | tmax ([7]; single SC 0.1 mg/kg): 24 h | AUCinf ([7]; single SC 1.5 mg/kg): 678000 ng·h/mL | AUClast ([7]; single SC 1.5 mg/kg): 672000 ng·h/mL | Cmax ([7]; single SC 1.5 mg/kg): 9300 ng/mL | Half-life ([7]; single SC 1.5 mg/kg): 47.3 h | MRTinf ([7]; single SC 1.5 mg/kg): 73.7 h | tmax ([7]; single SC 1.5 mg/kg): 48 h

From US20210205413A1 (Nektar Therapeutics, priority 2018, published 2021)
